Reference: the supplement of paper PMC11246515
± gives the standard deviation of the averaged measurements.

Test: total protein half-life in vivo (active degradation + dilution); higher = more stable protein
[1] = E. coli NCM3722 delta-clpP delta-lon delta-hslV, growth: N-lim chemostat, doubling time 6 h
[2] = E. coli NCM3722 delta-clpP, growth: N-lim chemostat, doubling time 6 h
[3] = E. coli NCM3722 delta-hslV, growth: N-lim chemostat, doubling time 6 h
[4] = E. coli NCM3722 delta-lon, growth: N-lim chemostat, doubling time 6 h
[5] = E. coli NCM3722 delta-smpB, growth: N-lim chemostat, doubling time 6 h
[6] = wild type E. coli NCM3722, growth: C-lim chemostat, doubling time 3 h
[7] = wild type E. coli NCM3722, growth: C-lim chemostat, doubling time 6 h
[8] = wild type E. coli NCM3722, growth: C-lim chemostat, doubling time 12 h
[9] = wild type E. coli NCM3722, growth: N-lim chemostat, doubling time 6 h
[10] = wild type E. coli NCM3722, growth: N-lim chemostat, doubling time 12 h
[11] = wild type E. coli NCM3722, growth: P-lim chemostat, doubling time 6 h
[12] = wild type E. coli NCM3722, growth: P-lim chemostat, doubling time 12 h

| Sequence | total protein half-life in vivo [1] | total protein half-life in vivo [2] | total protein half-life in vivo [3] | total protein half-life in vivo [4] | total protein half-life in vivo [5] | total protein half-life in vivo [6] | total protein half-life in vivo [7] | total protein half-life in vivo [8] | total protein half-life in vivo [9] | total protein half-life in vivo [10] | total protein half-life in vivo [11] | total protein half-life in vivo [12] |
| --- | --- | --- | --- | --- | --- | --- | --- | --- | --- | --- | --- | --- |
| MSSLPVAAVLPELLTALDCAPQVLLSAPTGAGKSTWLPLQLLAHPGINGKIILLEPRRLAARNVAQRLAELLNEKPGDTVGYRMRAQNCVGPNTRLEVVTEGVLTRMIQRDPELSGVGLVILDEFHERSLQADLALALLLDVQQGLRDDLKLLIMSATLDNDRLQQMLPEAPVVISEGRSFPVERRYLPLPAHQRFDDAVAVATAEMLRQESGSLLLFLPGVGEIQRVQEQLASRIGSDVLLCPLYGALSLNDQRKAILPAPQGMRKVVLATNIAETSLTIEGIRLVVDCAQERVARFDPRTGLTRLITQRVSQASMTQRAGRAGRLEPGISLHLIAKEQAERAAAQSEPEILQSDLSGLLMELLQWGCSDPAQMSWLDQPPVVNLLAAKRLLQMLGALEGERLSAQGQKMAALGNDPRLAAMLVSAKNDDEAATAAKIAAILEEPPRMGNSDLGVAFSRNQPAWQQRSQQLLKRLNVRGGEADSSLIAPLLAGAFADRIARRRGQDGRYQLANGMGAMLDANDALSRHEWLIAPLLLQGSASPDARILLALLVDIDELVQRCPQLVQQSDTVEWDDAQGTLKAWRRLQIGQLTVKVQPLAKPSEDELHQAMLNGIRDKGLSVLNWTAEAEQLRLRLLCAAKWLPEYDWPAVDDESLLAALETWLLPHMTGVHSLRGLKSLDIYQALRGLLDWGMQQRLDSELPAHYTVPTGSRIAIRYHEDNPPALAVRMQEMFGEATNPTIAQGRVPLVLELLSPAQRPLQITRDLSDFWKGAYREVQKEMKGRYPKHVWPDDPANTAPTRRTKKYS | 5.57 ± 0.07 h | 5.56 ± 0.99 h | 3.91 ± 0.046 h | 4.29 ± 0.098 h | 4.21 ± 0.25 h | 2.8 ± 0.11 h | 4.648 ± 0.041 h | 9.65 ± 3.8 h | 3.97 ± 0.26 h | 6.433 ± 0.061 h | 4.905 ± 0.044 h | 9.09 ± 0.45 h |
| MSSMTTTDNKAFLNELARLVGSSHLLTDPAKTARYRKGFRSGQGDALAVVFPGSLLELWRVLKACVTADKIILMQAANTGLTEGSTPNGNDYDRDVVIISTLRLDKLHVLGKGEQVLAYPGTTLYSLEKALKPLGREPHSVIGSSCIGASVIGGICNNSGGSLVQRGPAYTEMSLFARINEDGKLTLVNHLGIDLGETPEQILSKLDDDRIKDDDVRHDGRHAHDYDYVHRVRDIEADTPARYNADPDRLFESSGCAGKLAVFAVRLDTFEAEKNQQVFYIGTNQPEVLTEIRRHILANFENLPVAGEYMHRDIYDIAEKYGKDTFLMIDKLGTDKMPFFFNLKGRTDAMLEKVKFFRPHFTDRAMQKFGHLFPSHLPPRMKNWRDKYEHHLLLKMAGDGVGEAKSWLVDYFKQAEGDFFVCTPEEGSKAFLHRFAAAGAAIRYQAVHSDEVEDILALDIALRRNDTEWYEHLPPEIDSQLVHKLYYGHFMCYVFHQDYIVKKGVDVHALKEQMLELLQQRGAQYPAEHNVGHLYKAPETLQKFYRENDPTNSMNPGIGKTSKRKNWQEVE | 6.43 ± 0.27 h | 6.81 ± 1 h | 5.82 ± 0.25 h | 5.72 ± 0.37 h | 5.06 ± 0.94 h | 1.97 ± 0.11 h | 4.28 ± 0.33 h | 10 ± 0.23 h | 5.98 ± 0.4 h | 10.2 ± 0.66 h | 4.92 ± 0.78 h | 9.79 ± 1.1 h |
| MSSNFRHQLLSLSLLVGIAAPWAAFAQAPISSVGSGSVEDRVTQLERISNAHSQLLTQLQQQLSDNQSDIDSLRGQIQENQYQLNQVVERQKQILLQIDSLSSGGAAAQSTSGDQSGAAASTTPTADAGTANAGAPVKSGNANTDYNAAIALVQDKSRQDDAMVAFQNFIKNYPDSTYLPNANYWLGQLNYNKGKKDDAAYYFASVVKNYPKSPKAADAMFKVGVIMQDKGDTAKAKAVYQQVISKYPGTDGAKQAQKRLNAM | 5.65 ± 0.36 h |  | 5.26 ± 0.17 h | 5.96 ± 0.72 h | 5.27 ± 1.5 h |  | 6.4 ± 1 h | 8.8 ± 1.9 h | 5.61 ± 0.1 h | 11.3 ± 0.16 h | 5.31 ± 1.9 h | 11.6 ± 0.52 h |
